# Laboratory results reported in patent US20150023989A1 (Seagen, published 2015).
# B1: parental Fab fragment M048-D01 (Fab, V domains shown)
# VH: EVQLLESGGGLVQPGGSLRLSCAASGFTFSSYAMSWVRQAPGKGLEWVSAISGSGTSTYYADSVKGRFTISRDNSKNTLYLQMNSLRAEDTAVYYCARVRYNWNHGDWFDPWGQGTLVTVSS
# VL: QSVLTQPPSASGTPGQRVTISCSGSSSNIGNNYVSWYQQLPGTAPKLLIYENYNRPAGVPDRFSGSKSGTSASLAISGLRSEDEADYYCSSWDDSLNYWVFGGGTKLTVL
# notes: Fab from the n-CoDeR phage display library, expressed in E. coli and purified through its his-tag; constant domains and tag are not; also called M048-D01 Fab; sFab
# Target: T1, hFGFR2α-Fc (IIIb) (Human, UniProt P21802-3 22-378, biotinylated with biotin-LC-NHS (2-fold molar excess), positions not stated)
# T1 construct: Bought protein; also called RnD Systems 663-FR; not shown: Fc part of the bought fusion protein
# Test: ELISA; biotinylated Fc fusion protein on streptavidin plate, Fab at 1 µg/ml; signal against TRAIL-Fc wells (+++: ratio >5)
# T1 sequence (P21802 other isoform, or with tags, fused parts or gaps limits assumed): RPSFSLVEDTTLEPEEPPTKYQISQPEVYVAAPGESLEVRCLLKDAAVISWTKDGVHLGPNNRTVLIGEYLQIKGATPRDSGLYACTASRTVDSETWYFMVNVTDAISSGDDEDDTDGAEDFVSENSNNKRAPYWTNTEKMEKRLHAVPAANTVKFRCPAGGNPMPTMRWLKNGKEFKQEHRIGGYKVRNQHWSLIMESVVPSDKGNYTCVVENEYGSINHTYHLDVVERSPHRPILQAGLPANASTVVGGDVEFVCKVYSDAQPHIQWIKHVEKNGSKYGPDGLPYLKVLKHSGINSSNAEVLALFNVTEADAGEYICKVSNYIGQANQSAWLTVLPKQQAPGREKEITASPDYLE
binder,measurement,value
B1,binding result,binds
